B1: Vitamin D3 receptor (Homo sapiens), P11473 (parent)
chain: MEAMAASTSLPDPGDFDRNVPRICGVCGDRATGFHFNAMTCEGCKGFFRRSMKRKALFTCPFNGDCRITKDNRRHCQACRLKRCVDIGMMKEFILTDEEVQRKREMILKRKEEEALKDSLRPKLSEEQQRIIAILLDAHHKTYDPTYSDFCQFRPPVRVNDGGGSHPSRPNSRHTPSFSGDSSSSCSDHCITSSDMMDSSSFSNLDLSEEDSDDPSVTLELSQLSMLPHLADLVSYSIQKVIGFAKMIPGFRDLTSEDQIVLLKSSAIEVIMLRSNESFTMDDMSWTCGNQDYKYRVSDVTKAGHSLELIEPLIKFQVGLKKLNLHEEEHVLLMAICIVSPDRPGVQDAALIEAIQDRLSNTLQTYIRCRHPPPGSHLLYAKMIQKLADLRSLNEEHSKQYRCLSFQPECSMKLTPLVLEVFGNEIS
B2: Progranulin (Homo sapiens), P28799 (parent)
chain: MWTLVSWVALTAGLVAGTRCPDGQFCPVACCLDPGGASYSCCRPLLDKWPTTLSRHLGGPCQVDAHCSAGHSCIFTVSGTSSCCPFPEAVACGDGHHCCPRGFHCSADGRSCFQRSGNNSVGAIQCPDSQFECPDFSTCCVMVDGSWGCCPMPQASCCEDRVHCCPHGAFCDLVHTRCITPTGTHPLAKKLPAQRTNRAVALSSSVMCPDARSRCPDGSTCCELPSGKYGCCPMPNATCCSDHLHCCPQDTVCDLIQSKCLSKENATTDLLTKLPAHTVGDVKCDMEVSCPDGYTCCRLQSGAWGCCPFTQAVCCEDHIHCCPAGFTCDTQKGTCEQGPHQVPWMEKAPAHLSLPDPQALKRDVPCDNVSSCPSSDTCCQLTSGEWGCCPIPEAVCCSDHQHCCPQGYTCVAEGQCQRGSEIVAGLEKMPARRASLSHPRDIGCDQHTSCPVGQTCCPSLGGSWACCQLPHAVCCEDRQHCCPAGYTCNVKARSCEKEVVSAQPATFLARSPHVGVKDVECGEGHFCHDNQTCCRDNRQGWACCPYRQGVCCADRRHCCPAGFRCAARGTKCLRREAPRWDAPLRDPALRQLL
partner: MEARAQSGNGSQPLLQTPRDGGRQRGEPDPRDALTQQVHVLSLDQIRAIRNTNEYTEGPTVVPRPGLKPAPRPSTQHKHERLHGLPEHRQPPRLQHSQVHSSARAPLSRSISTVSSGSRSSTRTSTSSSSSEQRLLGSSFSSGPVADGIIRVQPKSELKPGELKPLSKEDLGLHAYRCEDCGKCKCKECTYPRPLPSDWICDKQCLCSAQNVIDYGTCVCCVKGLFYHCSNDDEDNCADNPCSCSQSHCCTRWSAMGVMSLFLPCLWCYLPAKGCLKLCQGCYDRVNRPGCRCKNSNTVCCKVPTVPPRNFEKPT
B3: Phakinin (Homo sapiens), Q13515 (parent)
chain: MSERRVVVDLPTSASSSMPLQRRRASFRGPRSSSSLESPPASRTNAMSGLVRAPGVYVGTAPSGCIGGLGARVTRRALGISSVFLQGLRSSGLATVPAPGLERDHGAVEDLGGCLVEYMAKVHALEQVSQELETQLRMHLESKATRSGNWGALRASWASSCQQVGEAVLENARLMLQTETIQAGADDFKERYENEQPFRKAAEEEINSLYKVIDEANLTKMDLESQIESLKEELGSLSRNYEEDVKLLHKQLAGCELEQMDAPIGTGLDDILETIRIQWERDVEKNRVEAGALLQAKQQAEVAHMSQTQEEKLAAALRVELHNTSCQVQSLQAETESLRALKRGLENTLHDAKHWHDMELQNLGAVVGRLEAELREIRAEAEQQQQERAHLLARKCQLQKDVASYHALLDREESG
partner: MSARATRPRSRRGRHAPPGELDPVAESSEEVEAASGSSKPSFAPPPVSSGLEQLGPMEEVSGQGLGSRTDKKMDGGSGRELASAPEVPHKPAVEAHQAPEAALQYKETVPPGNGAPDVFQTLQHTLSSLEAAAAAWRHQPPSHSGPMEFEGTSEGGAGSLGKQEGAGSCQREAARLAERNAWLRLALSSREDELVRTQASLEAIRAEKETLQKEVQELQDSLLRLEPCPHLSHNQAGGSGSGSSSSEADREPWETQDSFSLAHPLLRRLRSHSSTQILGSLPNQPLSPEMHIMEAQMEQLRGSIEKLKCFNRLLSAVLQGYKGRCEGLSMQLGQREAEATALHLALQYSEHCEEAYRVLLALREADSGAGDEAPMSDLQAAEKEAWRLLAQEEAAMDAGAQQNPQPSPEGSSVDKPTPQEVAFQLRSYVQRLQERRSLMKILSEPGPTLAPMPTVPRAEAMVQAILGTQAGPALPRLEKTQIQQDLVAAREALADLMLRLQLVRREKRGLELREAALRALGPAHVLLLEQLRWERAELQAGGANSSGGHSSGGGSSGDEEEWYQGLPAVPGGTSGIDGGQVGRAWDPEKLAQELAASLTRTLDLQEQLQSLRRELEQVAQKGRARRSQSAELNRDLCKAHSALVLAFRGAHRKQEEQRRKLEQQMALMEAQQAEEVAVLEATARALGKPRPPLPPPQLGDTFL
B4: Sulfotransferase 2B1 (Homo sapiens), O00204 (parent)
chain: MDGPAEPQIPGLWDTYEDDISEISQKLPGEYFRYKGVPFPVGLYSLESISLAENTQDVRDDDIFIITYPKSGTTWMIEIICLILKEGDPSWIRSVPIWERAPWCETIVGAFSLPDQYSPRLMSSHLPIQIFTKAFFSSKAKVIYMGRNPRDVVVSLYHYSKIAGQLKDPGTPDQFLRDFLKGEVQFGSWFDHIKGWLRMKGKDNFLFITYEELQQDLQGSVERICGFLGRPLGKEALGSVVAHSTFSAMKANTMSNYTLLPPSLLDHRRGAFLRKGVCGDWKNHFTVAQSEAFDRAYRKQMRGMPTFPWDEDPEEDGSPDPEPSPEPEPKPSLEPNTSLEREPRPNSSPSPSPGQASETPHPRPS

Variants of: B1
Details: with meox2_human MEOX2, P50222
Sequence of meox2_human MEOX2, P50222 (P50222 whole entry): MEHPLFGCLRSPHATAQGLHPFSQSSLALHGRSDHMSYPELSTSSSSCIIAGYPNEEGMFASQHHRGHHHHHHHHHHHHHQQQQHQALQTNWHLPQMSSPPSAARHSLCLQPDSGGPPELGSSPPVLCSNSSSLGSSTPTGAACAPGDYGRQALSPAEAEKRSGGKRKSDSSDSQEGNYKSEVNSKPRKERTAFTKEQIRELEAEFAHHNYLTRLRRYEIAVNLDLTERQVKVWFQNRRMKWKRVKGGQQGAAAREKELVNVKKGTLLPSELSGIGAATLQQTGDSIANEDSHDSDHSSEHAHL

| Variant | effect of a mutation on the interaction |
| --- | --- |
| E329K | disrupting interaction strength |
| G33D | with no effect |

Variants of: B2
Details: with spy2_human SPRY2, O43597

| Variant | effect of a mutation on the interaction |
| --- | --- |
| A9D | disrupting interaction strength |
| P248L | with no effect |
| R432C | disrupting interaction strength |
| P451L | disrupting interaction strength |

Variants of: B3
Details: with usbp1_human USHBP1, Q8N6Y0

| Variant | effect of a mutation on the interaction |
| --- | --- |
| R339H | with no effect |
| A407D | with no effect |

Variants of: B4
Details: with st1b1_human SULT1B1, O43704
Sequence of st1b1_human SULT1B1, O43704 (O43704 whole entry): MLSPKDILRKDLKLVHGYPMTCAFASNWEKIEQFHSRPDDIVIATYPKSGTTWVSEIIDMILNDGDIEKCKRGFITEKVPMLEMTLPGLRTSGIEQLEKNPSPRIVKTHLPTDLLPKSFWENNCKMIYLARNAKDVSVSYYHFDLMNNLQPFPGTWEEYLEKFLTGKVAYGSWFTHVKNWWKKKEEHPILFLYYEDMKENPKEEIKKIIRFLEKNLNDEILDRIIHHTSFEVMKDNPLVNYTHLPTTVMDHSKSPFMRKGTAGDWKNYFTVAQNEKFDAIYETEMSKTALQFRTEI

| Variant | effect of a mutation on the interaction |
| --- | --- |
| R230H | with no effect |

Variants of: B4
Details: with st1a1_human SULT1A1, P50225
Sequence of st1a1_human SULT1A1, P50225 (P50225 whole entry, looked up): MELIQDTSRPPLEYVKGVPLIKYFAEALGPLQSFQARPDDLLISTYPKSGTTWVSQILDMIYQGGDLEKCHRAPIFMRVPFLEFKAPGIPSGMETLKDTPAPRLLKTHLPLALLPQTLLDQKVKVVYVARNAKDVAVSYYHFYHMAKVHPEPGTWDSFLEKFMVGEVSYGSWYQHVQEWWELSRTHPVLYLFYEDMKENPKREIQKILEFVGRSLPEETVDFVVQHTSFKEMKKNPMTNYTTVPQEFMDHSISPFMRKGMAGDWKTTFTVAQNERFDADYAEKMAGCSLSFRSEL

| Variant | effect of a mutation on the interaction |
| --- | --- |
| R230H | with no effect |

— IntAct's records for PubMed 25910212
